Measured values reported in the Human Domainome abundance scans (Beltran et al. 2025).
± gives the uncertainty stated by the source.

assay: abundance fitness (aPCA) (normalised: wild type 0, dead -1); higher = more abundant; growth selection in yeast, the domain comes from the species named; details: Homo sapiens

| Substance | abundance fitness |
| --- | --- |
| E3 ubiquitin-protein ligase NEDD4-like V203F, Q96PU5 | -0.055 ± 0.069 |
| E3 ubiquitin-protein ligase NEDD4-like S225K, Q96PU5 | 0.019 ± 0.095 |
| E3 ubiquitin-protein ligase NEDD4-like L226N, Q96PU5 | 0.01 ± 0.09 |
| E3 ubiquitin-protein ligase NEDD4-like D228T, Q96PU5 | 0.042 ± 0.076 |
| E3 ubiquitin-protein ligase NEDD4-like V212N, Q96PU5 | -0.47 ± 0.15 |
| E3 ubiquitin-protein ligase NEDD4-like V212H, Q96PU5 | -0.207 ± 0.12 |
| E3 ubiquitin-protein ligase NEDD4-like N215V, Q96PU5 | -0.263 ± 0.071 |
| E3 ubiquitin-protein ligase NEDD4-like N213Q, Q96PU5 | -0.295 ± 0.089 |
| E3 ubiquitin-protein ligase NEDD4-like V203A, Q96PU5 | 0.023 ± 0.063 |
| E3 ubiquitin-protein ligase NEDD4-like N205K, Q96PU5 | 0.033 ± 0.097 |
| E3 ubiquitin-protein ligase NEDD4-like H214F, Q96PU5 | -0.07 ± 0.1 |
| E3 ubiquitin-protein ligase NEDD4-like D204Q, Q96PU5 | -0.668 ± 0.077 |
| E3 ubiquitin-protein ligase NEDD4-like Q185S, Q96PU5 | -1.18 ± 0.15 |
| E3 ubiquitin-protein ligase NEDD4-like P194M, Q96PU5 | 0.013 ± 0.072 |
| E3 ubiquitin-protein ligase NEDD4-like E200N, Q96PU5 | -0.471 ± 0.13 |
| E3 ubiquitin-protein ligase NEDD4-like T218E, Q96PU5 | -0.122 ± 0.062 |
| E3 ubiquitin-protein ligase NEDD4-like N215H, Q96PU5 | -0.031 ± 0.1 |
| E3 ubiquitin-protein ligase NEDD4-like Y211S, Q96PU5 | -0.715 ± 0.055 |
| E3 ubiquitin-protein ligase NEDD4-like H186T, Q96PU5 | -0.288 ± 0.11 |
| E3 ubiquitin-protein ligase NEDD4-like N215A, Q96PU5 | -0.029 ± 0.072 |
| E3 ubiquitin-protein ligase NEDD4-like P196V, Q96PU5 | -0.184 ± 0.056 |
| E3 ubiquitin-protein ligase NEDD4-like S231D, Q96PU5 | -0.425 ± 0.11 |
| E3 ubiquitin-protein ligase NEDD4-like L190I, Q96PU5 | 0.125 ± 0.1 |
| E3 ubiquitin-protein ligase NEDD4-like P196D, Q96PU5 | -0.231 ± 0.08 |

| Substance | abundance fitness |
| --- | --- |
| E3 ubiquitin-protein ligase NEDD4-like E201Q, Q96PU5 | -0.228 ± 0.12 |
| E3 ubiquitin-protein ligase NEDD4-like S231Q, Q96PU5 | 0.242 ± 0.14 |
| E3 ubiquitin-protein ligase NEDD4-like N213F, Q96PU5 | -0.507 ± 0.11 |
| E3 ubiquitin-protein ligase NEDD4-like P194H, Q96PU5 | -0.094 ± 0.073 |
| E3 ubiquitin-protein ligase NEDD4-like K202Q, Q96PU5 | -0.252 ± 0.096 |
| E3 ubiquitin-protein ligase NEDD4-like R223H, Q96PU5 | -0.18 ± 0.13 |
| E3 ubiquitin-protein ligase NEDD4-like M227V, Q96PU5 | -0.285 ± 0.068 |
| E3 ubiquitin-protein ligase NEDD4-like E189H, Q96PU5 | -0.242 ± 0.13 |
| E3 ubiquitin-protein ligase NEDD4-like P191K, Q96PU5 | 0.024 ± 0.076 |
| E3 ubiquitin-protein ligase NEDD4-like N215K, Q96PU5 | 0.165 ± 0.098 |
| E3 ubiquitin-protein ligase NEDD4-like T209S, Q96PU5 | 0.036 ± 0.073 |
| E3 ubiquitin-protein ligase NEDD4-like G198I, Q96PU5 | -0.765 ± 0.15 |
| E3 ubiquitin-protein ligase NEDD4-like T209Q, Q96PU5 | -0.21 ± 0.095 |
| E3 ubiquitin-protein ligase NEDD4-like N205Q, Q96PU5 | -0.087 ± 0.069 |
| E3 ubiquitin-protein ligase NEDD4-like V203G, Q96PU5 | -0.424 ± 0.053 |
| E3 ubiquitin-protein ligase NEDD4-like W221R, Q96PU5 | -0.052 ± 0.058 |
| E3 ubiquitin-protein ligase NEDD4-like Q187I, Q96PU5 | -0.247 ± 0.11 |
| E3 ubiquitin-protein ligase NEDD4-like H222N, Q96PU5 | -0.027 ± 0.11 |
| E3 ubiquitin-protein ligase NEDD4-like N205L, Q96PU5 | -0.196 ± 0.07 |
| E3 ubiquitin-protein ligase NEDD4-like G207S, Q96PU5 | -0.182 ± 0.048 |
| E3 ubiquitin-protein ligase NEDD4-like N216V, Q96PU5 | -0.151 ± 0.056 |
| E3 ubiquitin-protein ligase NEDD4-like E200G, Q96PU5 | -0.299 ± 0.059 |
| E3 ubiquitin-protein ligase NEDD4-like M227P, Q96PU5 | 0.145 ± 0.09 |
| E3 ubiquitin-protein ligase NEDD4-like T219P, Q96PU5 | -0.38 ± 0.1 |

| Substance | abundance fitness |
| --- | --- |
| E3 ubiquitin-protein ligase NEDD4-like G198P, Q96PU5 | -0.077 ± 0.074 |
| E3 ubiquitin-protein ligase NEDD4-like T218F, Q96PU5 | -0.028 ± 0.084 |
| E3 ubiquitin-protein ligase NEDD4-like S225R, Q96PU5 | -0.024 ± 0.064 |
| E3 ubiquitin-protein ligase NEDD4-like L226P, Q96PU5 | 0.104 ± 0.059 |
| E3 ubiquitin-protein ligase NEDD4-like H186P, Q96PU5 | -0.292 ± 0.081 |
| E3 ubiquitin-protein ligase NEDD4-like D204W, Q96PU5 | -1.4 ± 0.12 |
| E3 ubiquitin-protein ligase NEDD4-like W221Q, Q96PU5 | 0.196 ± 0.1 |
| E3 ubiquitin-protein ligase NEDD4-like N213K, Q96PU5 | -0.752 ± 0.18 |
| E3 ubiquitin-protein ligase NEDD4-like V229T, Q96PU5 | 0.018 ± 0.065 |
| E3 ubiquitin-protein ligase NEDD4-like D204C, Q96PU5 | -0.151 ± 0.099 |
| E3 ubiquitin-protein ligase NEDD4-like V203T, Q96PU5 | -0.115 ± 0.092 |
| E3 ubiquitin-protein ligase NEDD4-like T209D, Q96PU5 | -0.311 ± 0.072 |
| E3 ubiquitin-protein ligase NEDD4-like P193L, Q96PU5 | -0.103 ± 0.055 |
| E3 ubiquitin-protein ligase NEDD4-like Q220N, Q96PU5 | -0.354 ± 0.071 |
| E3 ubiquitin-protein ligase NEDD4-like D204V, Q96PU5 | -0.908 ± 0.074 |
| E3 ubiquitin-protein ligase NEDD4-like G198W, Q96PU5 | -0.324 ± 0.095 |
| E3 ubiquitin-protein ligase NEDD4-like R223G, Q96PU5 | -0.696 ± 0.068 |
| E3 ubiquitin-protein ligase NEDD4-like P193A, Q96PU5 | -0.12 ± 0.068 |
| E3 ubiquitin-protein ligase NEDD4-like L226R, Q96PU5 | -0.007 ± 0.065 |
| E3 ubiquitin-protein ligase NEDD4-like S225A, Q96PU5 | -0.068 ± 0.073 |
| E3 ubiquitin-protein ligase NEDD4-like N215S, Q96PU5 | -0.013 ± 0.07 |
| E3 ubiquitin-protein ligase NEDD4-like G207A, Q96PU5 | -0.252 ± 0.052 |
| E3 ubiquitin-protein ligase NEDD4-like G198K, Q96PU5 | -0.103 ± 0.087 |
| E3 ubiquitin-protein ligase NEDD4-like P197R, Q96PU5 | 0.093 ± 0.057 |

| Substance | abundance fitness |
| --- | --- |
| E3 ubiquitin-protein ligase NEDD4-like E232Y, Q96PU5 | -0.413 ± 0.27 |
| E3 ubiquitin-protein ligase NEDD4-like V212R, Q96PU5 | -0.196 ± 0.057 |
| E3 ubiquitin-protein ligase NEDD4-like S230L, Q96PU5 | -0.29 ± 0.071 |
| E3 ubiquitin-protein ligase NEDD4-like P193S, Q96PU5 | -0.042 ± 0.063 |
| E3 ubiquitin-protein ligase NEDD4-like P192W, Q96PU5 | -0.484 ± 0.072 |
| E3 ubiquitin-protein ligase NEDD4-like S184V, Q96PU5 | -0.505 ± 0.13 |
| E3 ubiquitin-protein ligase NEDD4-like G198R, Q96PU5 | -0.238 ± 0.06 |
| E3 ubiquitin-protein ligase NEDD4-like R217E, Q96PU5 | -0.153 ± 0.085 |
| E3 ubiquitin-protein ligase NEDD4-like H222G, Q96PU5 | -0.07 ± 0.06 |
| E3 ubiquitin-protein ligase NEDD4-like D228I, Q96PU5 | -0.474 ± 0.12 |
| E3 ubiquitin-protein ligase NEDD4-like P191S, Q96PU5 | 0.037 ± 0.069 |
| E3 ubiquitin-protein ligase NEDD4-like V229W, Q96PU5 | -0.164 ± 0.06 |
| E3 ubiquitin-protein ligase NEDD4-like D228M, Q96PU5 | -0.175 ± 0.099 |
| E3 ubiquitin-protein ligase NEDD4-like G207N, Q96PU5 | 0.042 ± 0.067 |
| E3 ubiquitin-protein ligase NEDD4-like H222L, Q96PU5 | -0.088 ± 0.056 |
| E3 ubiquitin-protein ligase NEDD4-like S230N, Q96PU5 | 0.108 ± 0.071 |
| E3 ubiquitin-protein ligase NEDD4-like P192A, Q96PU5 | -0.021 ± 0.078 |
| E3 ubiquitin-protein ligase NEDD4-like H222R, Q96PU5 | -0.016 ± 0.057 |
| E3 ubiquitin-protein ligase NEDD4-like W221V, Q96PU5 | -0.123 ± 0.066 |
| E3 ubiquitin-protein ligase NEDD4-like V229E, Q96PU5 | 0.003 ± 0.077 |
| E3 ubiquitin-protein ligase NEDD4-like P197H, Q96PU5 | -0.097 ± 0.085 |
| E3 ubiquitin-protein ligase NEDD4-like W199E, Q96PU5 | -0.275 ± 0.083 |
| E3 ubiquitin-protein ligase NEDD4-like P194C, Q96PU5 | -0.147 ± 0.076 |
